ChEMBL document CHEMBL1133169, “A light-inactivated antibiotic” (2000)

Substrate: CC(=O)OCC1=C(C(=O)O)N2C(=O)[C@@H](NC(=O)[C@@H](Cc3ccccc3)NNC(=O)OCc3ccccc3[N+](=O)[O-])C2SC1
Assay: The turnover kinetic parameter (Km) evaluated for Class A TEM-1 beta-lactamase

B1: Beta-lactamase TEM (Escherichia coli), P62593 (protein)
chain: MSIQHFRVALIPFFAAFCLPVFAHPETLVKVKDAEDQLGARVGYIELDLNSGKILESFRPEERFPMMSTFKVLLCGAVLSRVDAGQEQLGRRIHYSQNDLVEYSPVTEKHLTDGMTVRELCSAAITMSDNTAANLLLTTIGGPKELTAFLHNMGDHVTRLDRWEPELNEAIPNDERDTTMPAAMATTLRKLLTGELLTLASRQQLIDWMEADKVAGPLLRSALPAGWFIADKSGAGERGSRGIIAALGPDGKPSRIVVIYTTGSQATMDERNRQIAEIGASLIKHW
- Km: 80 µM
